Assay results: the supplement of paper PMC7877785
± gives the uncertainty stated by the source.

Assay: self-splicing fitness, log relative to wild type (ln ratio); higher = more splicing; Tetrahymena group I intron in knt gene, E. coli kanamycin selection, DiMSum; sequences stand for … in CUCUCU…GGAGGGAAAAGUUAUCAGGCAUGCACCUGGUAGCUAGUCUUUAAACCAAUAGAUUGCAUCGGUUUAAAAGGCAAGACCGUCAAAUUGCGGGAAAGGGGUCAACAGCCGUUCAGUACCAAGUCUCAGGGGAAACUUUGAGAUGGCCUUGCAAAGGGUAUGGUAAUAAGCUGACGGACAUGGUCCUAACCACGCAGCCAAGUCCUAAGUCAACAGAUCUUCUGUUGAUAUGGAUGCAGUUCACAGACUAAAUGUCGGUCGGGGAAGAUGUAUUCUUCUCAUAAGAUAUAGUCGGACCUCUCCUUAAUGGGAGCUAGCGGAUGAAGUGAUGCAACACUGGAGCCGCUGGGAACUAAUUUGUAUGCGAAAGUAUAUUGAUUAGUUUUGGAGUACUCGUGGUCG
Procedure, shortened: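 Library with all eight P1ex-region intron nucleotides randomised, intron inside the knt kanamycin-resistance gene on pET-22b(+), in E. coli BL21(DE3). Cells grew overnight at 37°C or 30°C on LB agar with or without 25 μg/mL kanamycin (plus 100 μg/mL carbenicillin, 50 μM IPTG, 0.2% rhamnose), in six replicate transformations. Pooled colonies were amplicon-sequenced on Illumina HiSeq 2500. DiMSum fitness is the error-weighted combination of wild-type-normalised replicate fold changes, kanamycin versus none.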

| Sequence | self-splicing fitness (ln) (30 °C) | self-splicing fitness (ln) (37 °C) |
| --- | --- | --- |
| UCACAGCAAUAUUACGCAUG | -2.04 ± 0.098 | -1.58 ± 0.098 |
| UCACAGCAAUAUUACGCUUC | -4.3 ± 0.43 | -3.28 ± 0.43 |
| UCACAGCAAUAUUACGGACG | -1.22 ± 0.073 | -0.222 ± 0.091 |
| UCACAGCAAUAUUACGGACU | -2.99 ± 0.15 | -2.16 ± 0.14 |
| UCACAGCAAUAUUACGGAGG | -3.27 ± 0.15 | -2.29 ± 0.19 |
| UCACAGCAAUAUUACGGCCU | -3.61 ± 0.25 | -1.99 ± 0.15 |
| UCACAGCAAUAUUACGGGCC | -3.95 ± 0.34 | -2.76 ± 0.33 |
| UCACAGCAAUAUUACGGGCU | -4 ± 0.18 | -3.47 ± 0.16 |
| UCACAGCAAUAUUACGGUAG | -1.18 ± 0.085 | -0.311 ± 0.1 |
| UCACAGCAAUAUUACGUACA | -1.53 ± 0.076 | -0.549 ± 0.075 |
| UCACAGCAAUAUUACGUCAG | -1.59 ± 0.077 | -0.829 ± 0.1 |
| UCACAGCAAUAUUACGUUAA | -2.66 ± 0.12 | -1.83 ± 0.11 |
| UCACAGCAAUAUUACGUUUG | -2.21 ± 0.08 | -1.2 ± 0.11 |
| UCAGAGCAAUAUUACGAAAU | -3.56 ± 0.32 | -2.11 ± 0.46 |
| UCAGAGCAAUAUUACGAAGA |  | -2.32 ± 0.42 |
| UCAGAGCAAUAUUACGAAUC | -2.45 ± 0.42 |  |
| UCAGAGCAAUAUUACGAGAU | -3.74 ± 0.33 | -2.09 ± 0.37 |
| UCAGAGCAAUAUUACGAGCU | -2.68 ± 0.38 | -1.58 ± 0.29 |
| UCAGAGCAAUAUUACGAUUC |  | -1.19 ± 0.41 |
| UCAGAGCAAUAUUACGCACG | -3.39 ± 0.29 | -1.37 ± 0.21 |
| UCAGAGCAAUAUUACGCCAA | -2.84 ± 0.25 | -1.74 ± 0.29 |
| UCAGAGCAAUAUUACGCCUA | -2.28 ± 0.25 | -1.61 ± 0.26 |
| UCAGAGCAAUAUUACGCGAC | -3.71 ± 0.42 |  |
| UCAGAGCAAUAUUACGCGAG | -2.24 ± 0.12 | -1.06 ± 0.13 |
| UCAGAGCAAUAUUACGCGGC |  | -3.08 ± 0.4 |

| Sequence | self-splicing fitness (ln) (30 °C) | self-splicing fitness (ln) (37 °C) |
| --- | --- | --- |
| UCAGAGCAAUAUUACGGCAU | -3.07 ± 0.33 | -1.87 ± 0.29 |
| UCAGAGCAAUAUUACGGCGG | -1.41 ± 0.13 | 0.0537 ± 0.13 |
| UCAGAGCAAUAUUACGGCUC | -4.58 ± 0.34 | -3.36 ± 0.25 |
| UCAGAGCAAUAUUACGGCUG | -2.49 ± 0.19 | -0.448 ± 0.2 |
| UCAGAGCAAUAUUACGGUAG | -3.45 ± 0.24 | -2.39 ± 0.27 |
| UCAGAGCAAUAUUACGGUCA | -1.72 ± 0.18 | -2.42 ± 0.32 |
| UCAGAGCAAUAUUACGUAAA | -2.65 ± 0.15 | -1.95 ± 0.25 |
| UCAGAGCAAUAUUACGUCGC | -3.79 ± 0.37 | -2.41 ± 0.35 |
| UCAGAGCAAUAUUACGUGAG | -0.959 ± 0.054 | -0.838 ± 0.081 |
| UCAGAGCAAUAUUACGUUAC | -3.21 ± 0.37 | -1.55 ± 0.29 |
| UCAGAGCAAUAUUACGUUUA | -3.02 ± 0.25 | -2.6 ± 0.23 |
| UCAGAGCAAUAUUACGUUUG | -4.06 ± 0.24 | -2.36 ± 0.26 |
| UCAUAGCAAUAUUACGAAAC | -2.6 ± 0.25 |  |
| UCAUAGCAAUAUUACGACCU | -2.73 ± 0.39 | -0.81 ± 0.26 |
| UCAUAGCAAUAUUACGAGGC | -2.86 ± 0.35 | -1.44 ± 0.2 |
| UCAUAGCAAUAUUACGAGUG | -1.8 ± 0.11 | -0.999 ± 0.11 |
| UCAUAGCAAUAUUACGAUAA | -1.71 ± 0.21 | -0.636 ± 0.19 |
| UCAUAGCAAUAUUACGCCUG | -0.427 ± 0.085 | -0.133 ± 0.11 |
| UCAUAGCAAUAUUACGCGGA | -2.71 ± 0.18 | -0.822 ± 0.11 |
| UCAUAGCAAUAUUACGCUCA | -1.82 ± 0.15 | -0.493 ± 0.15 |
| UCAUAGCAAUAUUACGCUGU | -2.91 ± 0.17 | -1.95 ± 0.24 |
| UCAUAGCAAUAUUACGGACU | -2.63 ± 0.18 | -3.18 ± 0.43 |
| UCAUAGCAAUAUUACGGGAC | -2.96 ± 0.27 | -3.97 ± 0.39 |
| UCAUAGCAAUAUUACGGGGU | -4.08 ± 0.27 | -1.67 ± 0.18 |
| UCAUAGCAAUAUUACGGUAU |  | -2.43 ± 0.28 |

| Sequence | self-splicing fitness (ln) (30 °C) | self-splicing fitness (ln) (37 °C) |
| --- | --- | --- |
| UCAUAGCAAUAUUACGUAAG | -1.66 ± 0.1 | -1.91 ± 0.15 |
| UCAUAGCAAUAUUACGUAGC | -4.12 ± 0.3 | -0.156 ± 0.15 |
| UCAUAGCAAUAUUACGUAGG | -1.08 ± 0.074 | -1.56 ± 0.096 |
| UCAUAGCAAUAUUACGUAUA | -2.54 ± 0.34 | -2.13 ± 0.28 |
| UCAUAGCAAUAUUACGUAUC | -4.44 ± 0.33 | -3.23 ± 0.24 |
| UCAUAGCAAUAUUACGUCCU | -3.7 ± 0.25 | -1.18 ± 0.14 |
| UCAUAGCAAUAUUACGUGCU | -2.6 ± 0.17 | -1.99 ± 0.11 |
| UCAUAGCAAUAUUACGUGGA | -2.02 ± 0.11 | -1.24 ± 0.093 |
| UCAUAGCAAUAUUACGUGUA | -2.35 ± 0.13 | -1.84 ± 0.14 |
| UCAUAGCAAUAUUACGUUGC | -3.86 ± 0.31 | -2.31 ± 0.32 |
| UCCAAGCAAUAUUACGACCC | -3.47 ± 0.22 | -1.98 ± 0.17 |
| UCCAAGCAAUAUUACGACGA | -0.735 ± 0.07 | 0.11 ± 0.096 |
| UCCAAGCAAUAUUACGACGU | -0.266 ± 0.068 | 0.0245 ± 0.073 |
| UCCAAGCAAUAUUACGAUCU | -3.08 ± 0.26 | -2.56 ± 0.22 |
| UCCAAGCAAUAUUACGAUGA | -0.0226 ± 0.05 | 0.466 ± 0.071 |
| UCCAAGCAAUAUUACGAUUG | -4.13 ± 0.33 | -1.78 ± 0.2 |
| UCCAAGCAAUAUUACGCAAG | -3.86 ± 0.32 | -2.51 ± 0.26 |
| UCCAAGCAAUAUUACGCACU | -2.28 ± 0.15 | -0.918 ± 0.14 |
| UCCAAGCAAUAUUACGCAUA | -1.07 ± 0.096 | -0.213 ± 0.087 |
| UCCAAGCAAUAUUACGCCGA | -0.365 ± 0.14 | 0.242 ± 0.13 |
| UCCAAGCAAUAUUACGCCGU | -0.285 ± 0.13 | -0.0434 ± 0.19 |
| UCCAAGCAAUAUUACGCGAA | -2.43 ± 0.13 | -0.748 ± 0.12 |
| UCCAAGCAAUAUUACGCGAC | -2.44 ± 0.23 |  |
| UCCAAGCAAUAUUACGCUCA | -1.03 ± 0.11 | -0.393 ± 0.13 |
| UCCAAGCAAUAUUACGGAGG | -4.42 ± 0.27 | -2.81 ± 0.29 |

| Sequence | self-splicing fitness (ln) (30 °C) | self-splicing fitness (ln) (37 °C) |
| --- | --- | --- |
| UCCAAGCAAUAUUACGGCCA | -0.223 ± 0.11 | 0.127 ± 0.11 |
| UCCAAGCAAUAUUACGGGCA | -0.884 ± 0.06 | 0.244 ± 0.074 |
| UCCAAGCAAUAUUACGGGCC | -4.08 ± 0.32 | -1.72 ± 0.25 |
| UCCAAGCAAUAUUACGGUUA | -0.451 ± 0.066 | 0.0448 ± 0.068 |
| UCCAAGCAAUAUUACGUAAA | -1.12 ± 0.089 | -0.00199 ± 0.11 |
| UCCAAGCAAUAUUACGUACG | -3.53 ± 0.19 | -1.76 ± 0.16 |
| UCCAAGCAAUAUUACGUAGC | -3.38 ± 0.14 | -1.38 ± 0.11 |
| UCCAAGCAAUAUUACGUCCA | -1.56 ± 0.11 | -0.691 ± 0.11 |
| UCCAAGCAAUAUUACGUCGU | -0.899 ± 0.073 | -0.178 ± 0.085 |
| UCCAAGCAAUAUUACGUCUG | -4 ± 0.23 | -3.01 ± 0.2 |
| UCCAAGCAAUAUUACGUGGC | -3.9 ± 0.27 | -2.97 ± 0.33 |
| UCCAAGCAAUAUUACGUGGU | -2.96 ± 0.1 | -1.45 ± 0.092 |
| UCCAAGCAAUAUUACGUUAC | -4.16 ± 0.26 | -3.2 ± 0.32 |
| UCCAAGCAAUAUUACGUUCA | -1.4 ± 0.13 | -0.51 ± 0.11 |
| UCCAAGCAAUAUUACGUUCU | -2.62 ± 0.1 | -3.9 ± 0.29 |
| UCCAAGCAAUAUUACGUUUC | -3.37 ± 0.2 | -2.76 ± 0.26 |
| UCCAAGCAAUAUUACGUUUU | -4 ± 0.13 | -2.91 ± 0.14 |
| UCCCAGCAAUAUUACGAAAC | -3.52 ± 0.44 | -1.93 ± 0.46 |
| UCCCAGCAAUAUUACGAAGA | -0.348 ± 0.084 | -0.266 ± 0.09 |
| UCCCAGCAAUAUUACGACGG | -2.95 ± 0.15 | -2.15 ± 0.14 |
| UCCCAGCAAUAUUACGAGAG | -3.41 ± 0.29 | -2.14 ± 0.21 |
| UCCCAGCAAUAUUACGAGGG | -3.14 ± 0.17 | -3.02 ± 0.21 |
